Experimental data: paper PMC5939101 (Proceedings of the National Academy of Sciences of the …, 2018)

Target: T1, His-Ivy1 (recombinant wild-type Ivy1) (S. cerevisiae, UniProt Q04934 1-453)
T1 sequence: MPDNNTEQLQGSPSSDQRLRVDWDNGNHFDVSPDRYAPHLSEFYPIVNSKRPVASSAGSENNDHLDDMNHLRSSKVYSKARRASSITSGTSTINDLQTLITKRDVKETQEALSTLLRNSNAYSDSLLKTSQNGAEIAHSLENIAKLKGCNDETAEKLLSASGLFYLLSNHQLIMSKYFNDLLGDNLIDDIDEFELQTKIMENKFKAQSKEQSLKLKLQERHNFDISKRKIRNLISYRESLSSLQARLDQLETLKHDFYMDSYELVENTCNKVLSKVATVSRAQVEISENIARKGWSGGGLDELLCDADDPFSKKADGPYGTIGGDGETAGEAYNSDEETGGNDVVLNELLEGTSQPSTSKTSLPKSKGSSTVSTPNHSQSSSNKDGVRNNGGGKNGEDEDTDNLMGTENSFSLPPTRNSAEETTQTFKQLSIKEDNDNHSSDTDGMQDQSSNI
Assay: pull-down

B1: GST-Ypt7 (natural protein)
chain: MSSRKKNILKVIILGDSGVGKTSLMHRYVNDKYSQQYKATIGADFLTKEVTVDGDKVATMQVWDTAGQERFQSLGVAFYRGADCCVLVYDVTNASSFENIKSWRDEFLVHANVNSPETFPFVILGNKIDAEESKKIVSEKSAQELAKSLGDIPLFLTSAKNAINVDTAFEEIARSALQQNQADTEAFEDDYNDAINIRLDGENNSCSC
B1: binds.
